Key:
[1] = target: T1, ΔDEAD human Dicer (deletion of amino acids 1-604 spanning the entire DExD/H-box domain) (human, UniProt Q9UPY3 605-1922); test: size exclusion chromatography with SDS-PAGE of fractions after 60 min pre-incubation on ice
T1 construct: The DEAD-F primer adds an initiator Met; also called ΔDEAD hDcr; DExD/H-box deletion protein
T1 sequence: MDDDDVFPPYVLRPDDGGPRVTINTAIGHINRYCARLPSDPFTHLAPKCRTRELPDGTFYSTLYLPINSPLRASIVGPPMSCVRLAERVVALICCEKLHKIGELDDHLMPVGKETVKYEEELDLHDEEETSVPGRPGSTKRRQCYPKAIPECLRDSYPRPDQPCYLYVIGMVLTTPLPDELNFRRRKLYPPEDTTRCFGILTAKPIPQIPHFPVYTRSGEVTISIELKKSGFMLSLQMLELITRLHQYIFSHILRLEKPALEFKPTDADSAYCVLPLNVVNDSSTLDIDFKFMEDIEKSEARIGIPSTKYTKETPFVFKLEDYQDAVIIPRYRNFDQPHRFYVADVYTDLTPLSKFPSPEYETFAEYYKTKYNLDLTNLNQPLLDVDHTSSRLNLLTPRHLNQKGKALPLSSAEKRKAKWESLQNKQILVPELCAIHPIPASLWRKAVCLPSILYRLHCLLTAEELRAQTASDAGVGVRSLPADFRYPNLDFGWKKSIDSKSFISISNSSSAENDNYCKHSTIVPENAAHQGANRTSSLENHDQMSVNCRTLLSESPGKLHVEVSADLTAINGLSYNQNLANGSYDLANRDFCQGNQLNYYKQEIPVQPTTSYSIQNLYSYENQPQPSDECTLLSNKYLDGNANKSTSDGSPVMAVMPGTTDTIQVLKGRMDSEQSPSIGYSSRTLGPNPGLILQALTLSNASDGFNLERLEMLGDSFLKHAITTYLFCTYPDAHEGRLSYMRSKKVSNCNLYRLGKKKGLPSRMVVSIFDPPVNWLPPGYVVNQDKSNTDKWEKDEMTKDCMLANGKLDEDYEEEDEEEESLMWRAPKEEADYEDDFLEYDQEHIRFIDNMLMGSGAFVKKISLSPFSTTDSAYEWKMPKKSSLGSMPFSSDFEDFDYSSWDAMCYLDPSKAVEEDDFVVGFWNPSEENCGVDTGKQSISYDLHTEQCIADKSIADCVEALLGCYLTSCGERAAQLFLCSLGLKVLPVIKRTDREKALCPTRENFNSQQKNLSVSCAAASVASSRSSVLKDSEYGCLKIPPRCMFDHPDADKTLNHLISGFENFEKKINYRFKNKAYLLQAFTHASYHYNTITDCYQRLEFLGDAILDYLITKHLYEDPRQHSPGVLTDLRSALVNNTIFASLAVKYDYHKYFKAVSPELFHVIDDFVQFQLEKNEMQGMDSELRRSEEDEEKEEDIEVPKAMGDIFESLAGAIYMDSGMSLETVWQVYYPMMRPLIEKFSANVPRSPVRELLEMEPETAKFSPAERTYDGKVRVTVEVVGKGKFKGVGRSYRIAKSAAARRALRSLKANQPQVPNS
Method: FIGS. 6A and 6B. Interaction of human Dicer with TRBP mediated by DEAD domain A, TRBP interacts with hDcr through DEAD domain. Prior to size exclusion chromatography, 2.5 nmol of each human Dicer protein and 9.0 nmol of TRBP were pre-incubated on ice for 60 minutes. Left panel, a chromatogram (top) of wild-type human Dicer (flhDcr) with TRBP and SDS-PAGE gel analysis of fractions (bottom); Right panel, a chromatogram (top) of ΔDEAD human Dicer (ΔDEAD) with TRBP and SDS-PAGE gel analysis of fractions (bottom). B, Binding of TRBP to hDcr increased its dicing activity. A multiple-turnover assay for 37ab cleavage using 100 nM dsRNA and 5 nM hDcr or hDcr-TRBP.

TRBP, Q15633 = target: T2, TRBP, Q15633
T2 chain: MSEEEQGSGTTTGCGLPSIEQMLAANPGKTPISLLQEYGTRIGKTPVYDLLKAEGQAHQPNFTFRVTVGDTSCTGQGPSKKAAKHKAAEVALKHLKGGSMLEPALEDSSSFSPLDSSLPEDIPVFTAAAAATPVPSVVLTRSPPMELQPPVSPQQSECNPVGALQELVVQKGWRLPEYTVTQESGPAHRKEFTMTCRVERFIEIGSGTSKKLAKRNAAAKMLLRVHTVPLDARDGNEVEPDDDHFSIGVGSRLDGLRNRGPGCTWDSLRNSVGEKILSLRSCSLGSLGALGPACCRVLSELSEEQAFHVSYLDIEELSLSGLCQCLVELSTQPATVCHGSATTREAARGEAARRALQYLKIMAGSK

| Binder | binding result [1] | cleavage rate in a multiple-turnover assay for 37ab cleavage (100 nM dsRNA, 5 nM hDcr or hDcr-TRBP) (TRBP, Q15633) |
| --- | --- | --- |
| TRBP (other, human, UniProt Q15633 1-366, looked up, also called human partner protein TRBP) MSEEEQGSGTTTGCGLPSIEQMLAANPGKTPISLLQEYGTRIGKTPVYDLLKAEGQAHQPNFTFRVTVGDTSCTGQGPSKKAAKHKAAEVALKHLKGGSMLEPALEDSSSFSPLDSSLPEDIPVFTAAAAATPVPSVVLTRSPPMELQPPVSPQQSECNPVGALQELVVQKGWRLPEYTVTQESGPAHRKEFTMTCRVERFIEIGSGTSKKLAKRNAAAKMLLRVHTVPLDARDGNEVEPDDDHFSIGVGSRLDGLRNRGPGCTWDSLRNSVGEKILSLRSCSLGSLGALGPACCRVLSELSEEQAFHVSYLDIEELSLSGLCQCLVELSTQPATVCHGSATTREAARGEAARRALQYLKIMAGSK | no binding |  |
| full-length wild-type human Dicer (hDcr), accession no. NP-803187 (protein) MKSPALQPLSMAGLQLMTPASSPMGPFFGLPWQQEAIHDNIYTPRKYQVELLEAALDHNTIVCLNTGSGKTFIAVLLTKELSYQIRGDFSRNGKRTVFLVNSANQVAQQVSAVRTHSDLKVGEYSNLEVNASWTKERWNQEFTKHQVLIMTCYVALNVLKNGYLSLSDINLLVFDECHLAILDHPYREIMKLCENCPSCPRILGLTASILNGKCDPEELEEKIQKLEKILKSNAETATDLVVLDRYTSQPCEIVVDCGPFTDRSGLYERLLMELEEALNFINDCNISVHSKERDSTLISKQILSDCRAVLVVLGPWCADKVAGMMVRELQKYIKHEQEELHRKFLLFTDTFLRKIHALCEEHFSPASLDLKFVTPKVIKLLEILRKYKPYERQQFESVEWYNNRNQDNYVSWSDSEDDDEDEEIEEKEKPETNFPSPFTNILCGIIFVERRYTAVVLNRLIKEAGKQDPELAYISSNFITGHGIGKNQPRNKQMEAEFRKQEEVLRKFRAHETNLLIATSIVEEGVDIPKCNLVVRFDLPTEYRSYVQSKGRARAPISNYIMLADTDKIKSFEEDLKTYKAIEKILRNKCSKSVDTGETDIDPVMDDDDVFPPYVLRPDDGGPRVTINTAIGHINRYCARLPSDPFTHLAPKCRTRELPDGTFYSTLYLPINSPLRASIVGPPMSCVRLAERVVALICCEKLHKIGELDDHLMPVGKETVKYEEELDLHDEEETSVPGRPGSTKRRQCYPKAIPECLRDSYPRPDQPCYLYVIGMVLTTPLPDELNFRRRKLYPPEDTTRCFGILTAKPIPQIPHFPVYTRSGEVTISIELKKSGFMLSLQMLELITRLHQYIFSHILRLEKPALEFKPTDADSAYCVLPLNVVNDSSTLDIDFKFMEDIEKSEARIGIPSTKYTKETPFVFKLEDYQDAVIIPRYRNFDQPHRFYVADVYTDLTPLSKFPSPEYETFAEYYKTKYNLDLTNLNQPLLDVDHTSSRLNLLTPRHLNQKGKALPLSSAEKRKAKWESLQNKQILVPELCAIHPIPASLWRKAVCLPSILYRLHCLLTAEELRAQTASDAGVGVRSLPADFRYPNLDFGWKKSIDSKSFISISNSSSAENDNYCKHSTIVPENAAHQGANRTSSLENHDQMSVNCRTLLSESPGKLHVEVSADLTAINGLSYNQNLANGSYDLANRDFCQGNQLNYYKQEIPVQPTTSYSIQNLYSYENQPQPSDECTLLSNKYLDGNANKSTSDGSPVMAVMPGTTDTIQVLKGRMDSEQSPSIGYSSRTLGPNPGLILQALTLSNASDGFNLERLEMLGDSFLKHAITTYLFCTYPDAHEGRLSYMRSKKVSNCNLYRLGKKKGLPSRMVVSIFDPPVNWLPPGYVVNQDKSNTDKWEKDEMTKDCMLANGKLDEDYEEEDEEEESLMWRAPKEEADYEDDFLEYDQEHIRFIDNMLMGSGAFVKKISLSPFSTTDSAYEWKMPKKSSLGSMPFSSDFEDFDYSSWDAMCYLDPSKAVEEDDFVVGFWNPSEENCGVDTGKQSISYDLHTEQCIADKSIADCVEALLGCYLTSCGERAAQLFLCSLGLKVLPVIKRTDREKALCPTRENFNSQQKNLSVSCAAASVASSRSSVLKDSEYGCLKIPPRCMFDHPDADKTLNHLISGFENFEKKINYRFKNKAYLLQAFTHASYHYNTITDCYQRLEFLGDAILDYLITKHLYEDPRQHSPGVLTDLRSALVNNTIFASLAVKYDYHKYFKAVSPELFHVIDDFVQFQLEKNEMQGMDSELRRSEEDEEKEEDIEVPKAMGDIFESLAGAIYMDSGMSLETVWQVYYPMMRPLIEKFSANVPRSPVRELLEMEPETAKFSPAERTYDGKVRVTVEVVGKGKFKGVGRSYRIAKSAAARRALRSLKANQPQVPNS |  | increased the cleavage rate of the resulting protein complex |

From patent US8440430, “Modified dicer polypeptide and methods of use thereof” (The Regents of the University of California)
